Assay results taken from publication PMC8896503.

Key:
Test in all cases: PBM
[1] = biological target: GCN5 complex (Homo sapiens (THP-1-derived macrophages)) (UniProt Q92830); conditions: IFNg+LPS extract; Nuclear extract PBM (PMA-differentiated THP-1; untreated, LPS 45 min, or IFNg+LPS), antibody detection; buffer, salt, pH and temperature not in the material
[2] = biological target: T1, TBL1XR1 complex (Homo sapiens (THP-1-derived macrophages)) (UniProt Q9BZK7); conditions: IFNg+LPS extract, Nuclear extract PBM (PMA-differentiated THP-1; untreated, LPS 45 min, or IFNg+LPS), antibody detection, buffer, salt, pH and temperature not in the material
T1 sequence: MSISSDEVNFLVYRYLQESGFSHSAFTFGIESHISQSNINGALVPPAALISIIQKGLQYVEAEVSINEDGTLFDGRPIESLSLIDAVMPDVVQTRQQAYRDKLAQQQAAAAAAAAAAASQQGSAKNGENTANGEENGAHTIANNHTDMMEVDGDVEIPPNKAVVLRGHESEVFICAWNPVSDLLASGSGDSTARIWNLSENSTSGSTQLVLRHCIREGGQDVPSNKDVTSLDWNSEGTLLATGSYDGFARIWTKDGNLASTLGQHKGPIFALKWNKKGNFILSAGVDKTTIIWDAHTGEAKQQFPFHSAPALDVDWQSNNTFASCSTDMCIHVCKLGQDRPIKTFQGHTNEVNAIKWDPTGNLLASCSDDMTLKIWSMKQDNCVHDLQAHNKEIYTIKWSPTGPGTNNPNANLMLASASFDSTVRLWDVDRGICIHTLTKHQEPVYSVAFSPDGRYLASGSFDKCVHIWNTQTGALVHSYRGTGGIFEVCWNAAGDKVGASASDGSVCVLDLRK

[3] = biological target: RBBP5 complex (Homo sapiens (THP-1-derived macrophages)) (UniProt Q15291); conditions: Nuclear extract PBM (PMA-differentiated THP-1; untreated, LPS 45 min, or IFNg+LPS), antibody detection, buffer, salt, pH and temperature not in the material
Sequence of RBBP5 complex (Homo sapiens (THP-1-derived macrophages)) (Q15291 whole entry, one chain of several): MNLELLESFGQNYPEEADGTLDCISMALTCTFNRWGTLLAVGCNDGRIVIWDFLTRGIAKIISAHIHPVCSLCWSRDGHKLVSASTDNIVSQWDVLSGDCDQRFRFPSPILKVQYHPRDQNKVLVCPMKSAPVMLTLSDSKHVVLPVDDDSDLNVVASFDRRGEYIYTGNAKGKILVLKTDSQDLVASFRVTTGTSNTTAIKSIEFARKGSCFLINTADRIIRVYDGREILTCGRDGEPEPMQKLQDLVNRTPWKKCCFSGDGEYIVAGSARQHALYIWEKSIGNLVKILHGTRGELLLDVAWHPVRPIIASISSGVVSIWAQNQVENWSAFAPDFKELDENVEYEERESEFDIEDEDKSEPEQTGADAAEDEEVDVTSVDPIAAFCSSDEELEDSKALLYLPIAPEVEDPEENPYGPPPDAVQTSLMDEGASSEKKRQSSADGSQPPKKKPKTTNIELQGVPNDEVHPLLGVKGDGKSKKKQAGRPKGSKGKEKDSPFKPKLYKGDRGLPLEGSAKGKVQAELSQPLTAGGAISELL

[4] = biological target: p65 (RELA, NF-kB) (Homo sapiens (THP-1-derived macrophages)) (UniProt Q04206); conditions: Nuclear extract PBM (PMA-differentiated THP-1; untreated, LPS 45 min, or IFNg+LPS), antibody detection, buffer, salt, pH and temperature not in the material
Sequence of p65 (RELA, NF-kB) (Homo sapiens (THP-1-derived macrophages)) (Q04206 whole entry): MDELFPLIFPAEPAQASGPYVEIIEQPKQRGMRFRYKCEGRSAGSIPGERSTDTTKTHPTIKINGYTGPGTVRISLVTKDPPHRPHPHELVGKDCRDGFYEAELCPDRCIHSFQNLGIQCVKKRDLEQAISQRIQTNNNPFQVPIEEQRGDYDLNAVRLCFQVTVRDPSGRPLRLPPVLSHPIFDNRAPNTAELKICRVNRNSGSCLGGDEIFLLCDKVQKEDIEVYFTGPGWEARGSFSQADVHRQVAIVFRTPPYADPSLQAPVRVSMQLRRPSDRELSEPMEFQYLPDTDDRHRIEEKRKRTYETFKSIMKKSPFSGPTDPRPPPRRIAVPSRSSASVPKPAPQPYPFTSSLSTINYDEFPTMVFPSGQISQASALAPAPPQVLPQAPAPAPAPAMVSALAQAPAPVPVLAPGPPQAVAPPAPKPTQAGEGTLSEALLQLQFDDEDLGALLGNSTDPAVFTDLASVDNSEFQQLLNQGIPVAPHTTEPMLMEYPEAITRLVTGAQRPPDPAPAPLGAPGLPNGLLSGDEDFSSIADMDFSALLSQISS

[5] = biological target: T2, IRF3 (Homo sapiens (THP-1-derived macrophages)) (UniProt Q14653); conditions: LPS 45 min extract; likely tethered by NF-kB; Nuclear extract PBM (PMA-differentiated THP-1; untreated, LPS 45 min, or IFNg+LPS), antibody detection; buffer, salt, pH and temperature not in the material
T2 sequence: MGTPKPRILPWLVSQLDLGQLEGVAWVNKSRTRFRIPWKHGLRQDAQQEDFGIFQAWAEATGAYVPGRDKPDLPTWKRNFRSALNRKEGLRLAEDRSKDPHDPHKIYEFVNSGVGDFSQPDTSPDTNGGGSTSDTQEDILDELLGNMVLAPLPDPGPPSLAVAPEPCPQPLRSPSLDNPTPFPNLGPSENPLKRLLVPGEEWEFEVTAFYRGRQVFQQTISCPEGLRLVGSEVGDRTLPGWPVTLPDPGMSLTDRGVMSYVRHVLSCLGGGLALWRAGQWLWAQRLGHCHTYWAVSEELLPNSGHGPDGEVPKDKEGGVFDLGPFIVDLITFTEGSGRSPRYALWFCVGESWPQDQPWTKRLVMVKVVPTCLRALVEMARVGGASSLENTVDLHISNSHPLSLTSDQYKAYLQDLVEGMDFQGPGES

[6] = biological target: p300 complex (Homo sapiens (THP-1-derived macrophages)) (UniProt Q09472); conditions: Nuclear extract PBM (PMA-differentiated THP-1; untreated, LPS 45 min, or IFNg+LPS), antibody detection, buffer, salt, pH and temperature not in the material
Sequence of p300 complex (Homo sapiens (THP-1-derived macrophages)) (Q09472 whole entry, one chain of several): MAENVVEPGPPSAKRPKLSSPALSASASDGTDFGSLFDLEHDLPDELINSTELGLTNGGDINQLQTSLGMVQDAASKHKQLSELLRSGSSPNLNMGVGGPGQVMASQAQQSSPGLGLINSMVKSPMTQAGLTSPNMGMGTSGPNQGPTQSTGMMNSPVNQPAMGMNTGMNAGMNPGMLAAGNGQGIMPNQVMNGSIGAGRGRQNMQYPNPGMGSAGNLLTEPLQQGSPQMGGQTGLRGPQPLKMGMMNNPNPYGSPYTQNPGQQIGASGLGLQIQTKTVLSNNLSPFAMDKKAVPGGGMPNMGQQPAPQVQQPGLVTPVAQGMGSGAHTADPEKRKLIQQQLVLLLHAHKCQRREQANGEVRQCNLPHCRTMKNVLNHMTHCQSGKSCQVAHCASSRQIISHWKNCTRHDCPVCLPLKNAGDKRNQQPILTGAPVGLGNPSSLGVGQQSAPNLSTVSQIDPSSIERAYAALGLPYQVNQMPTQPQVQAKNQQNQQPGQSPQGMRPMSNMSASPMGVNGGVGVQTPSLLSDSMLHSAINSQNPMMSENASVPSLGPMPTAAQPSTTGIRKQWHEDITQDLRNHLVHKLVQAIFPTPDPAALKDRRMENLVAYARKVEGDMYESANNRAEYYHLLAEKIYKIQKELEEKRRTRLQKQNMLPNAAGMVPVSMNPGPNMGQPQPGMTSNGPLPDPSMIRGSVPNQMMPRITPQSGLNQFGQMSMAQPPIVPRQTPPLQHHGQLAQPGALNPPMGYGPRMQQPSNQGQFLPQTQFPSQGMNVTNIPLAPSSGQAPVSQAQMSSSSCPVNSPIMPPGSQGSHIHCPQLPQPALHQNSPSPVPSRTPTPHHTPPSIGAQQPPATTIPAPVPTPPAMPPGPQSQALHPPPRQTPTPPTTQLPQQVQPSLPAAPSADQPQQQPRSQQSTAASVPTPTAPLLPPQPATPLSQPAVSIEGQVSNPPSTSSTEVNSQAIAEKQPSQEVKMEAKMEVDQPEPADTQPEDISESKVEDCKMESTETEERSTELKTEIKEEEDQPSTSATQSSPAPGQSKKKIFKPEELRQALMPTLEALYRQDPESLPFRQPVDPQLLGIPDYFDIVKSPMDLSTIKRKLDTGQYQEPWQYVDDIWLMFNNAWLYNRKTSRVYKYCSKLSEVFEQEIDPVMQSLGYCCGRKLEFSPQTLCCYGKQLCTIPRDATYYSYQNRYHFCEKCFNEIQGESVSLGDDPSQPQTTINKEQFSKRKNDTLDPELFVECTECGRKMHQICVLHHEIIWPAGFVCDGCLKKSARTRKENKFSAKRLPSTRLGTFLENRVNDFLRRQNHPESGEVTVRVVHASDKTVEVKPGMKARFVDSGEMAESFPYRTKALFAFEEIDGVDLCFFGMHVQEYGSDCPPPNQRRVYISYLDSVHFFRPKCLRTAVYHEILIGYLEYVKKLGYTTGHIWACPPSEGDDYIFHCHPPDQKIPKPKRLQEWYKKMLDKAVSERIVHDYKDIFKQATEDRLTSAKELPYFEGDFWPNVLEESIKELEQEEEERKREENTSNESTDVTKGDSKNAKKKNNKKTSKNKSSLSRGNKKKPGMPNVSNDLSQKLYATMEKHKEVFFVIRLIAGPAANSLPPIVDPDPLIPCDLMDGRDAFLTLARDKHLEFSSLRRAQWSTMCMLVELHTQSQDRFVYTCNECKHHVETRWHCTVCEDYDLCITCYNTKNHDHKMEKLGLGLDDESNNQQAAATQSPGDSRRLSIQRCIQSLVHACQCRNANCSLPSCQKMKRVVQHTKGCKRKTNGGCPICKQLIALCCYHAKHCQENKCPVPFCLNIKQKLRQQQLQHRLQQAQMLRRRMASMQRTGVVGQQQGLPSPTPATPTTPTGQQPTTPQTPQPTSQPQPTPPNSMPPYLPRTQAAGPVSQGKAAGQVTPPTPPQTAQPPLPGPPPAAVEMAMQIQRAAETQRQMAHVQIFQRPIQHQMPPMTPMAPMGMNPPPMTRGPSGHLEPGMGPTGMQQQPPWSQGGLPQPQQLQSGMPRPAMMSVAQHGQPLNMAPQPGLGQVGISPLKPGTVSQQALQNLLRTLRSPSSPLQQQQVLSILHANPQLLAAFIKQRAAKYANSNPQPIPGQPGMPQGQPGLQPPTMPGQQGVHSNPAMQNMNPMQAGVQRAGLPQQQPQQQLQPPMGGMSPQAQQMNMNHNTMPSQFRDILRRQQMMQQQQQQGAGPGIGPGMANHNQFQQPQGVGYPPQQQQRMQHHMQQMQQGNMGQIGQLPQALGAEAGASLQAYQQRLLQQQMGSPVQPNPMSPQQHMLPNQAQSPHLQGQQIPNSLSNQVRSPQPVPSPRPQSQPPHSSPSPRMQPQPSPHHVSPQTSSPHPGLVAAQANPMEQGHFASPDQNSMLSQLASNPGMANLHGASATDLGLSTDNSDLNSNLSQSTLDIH

[7] = biological target: PU.1 (Homo sapiens (THP-1-derived macrophages)) (UniProt P17947); conditions: IFNg+LPS extract; Nuclear extract PBM (PMA-differentiated THP-1; untreated, LPS 45 min, or IFNg+LPS), antibody detection; buffer, salt, pH and temperature not in the material
[8] = biological target: SMARCA4/BRG1 complex (Homo sapiens (THP-1-derived macrophages)) (UniProt P51532); conditions: IFNg+LPS extract, Nuclear extract PBM (PMA-differentiated THP-1; untreated, LPS 45 min, or IFNg+LPS), antibody detection, buffer, salt, pH and temperature not in the material
[9] = not recruited or below detection

Sequence of GCN5 complex (Homo sapiens (THP-1-derived macrophages)) (Q92830 whole entry, one chain of several): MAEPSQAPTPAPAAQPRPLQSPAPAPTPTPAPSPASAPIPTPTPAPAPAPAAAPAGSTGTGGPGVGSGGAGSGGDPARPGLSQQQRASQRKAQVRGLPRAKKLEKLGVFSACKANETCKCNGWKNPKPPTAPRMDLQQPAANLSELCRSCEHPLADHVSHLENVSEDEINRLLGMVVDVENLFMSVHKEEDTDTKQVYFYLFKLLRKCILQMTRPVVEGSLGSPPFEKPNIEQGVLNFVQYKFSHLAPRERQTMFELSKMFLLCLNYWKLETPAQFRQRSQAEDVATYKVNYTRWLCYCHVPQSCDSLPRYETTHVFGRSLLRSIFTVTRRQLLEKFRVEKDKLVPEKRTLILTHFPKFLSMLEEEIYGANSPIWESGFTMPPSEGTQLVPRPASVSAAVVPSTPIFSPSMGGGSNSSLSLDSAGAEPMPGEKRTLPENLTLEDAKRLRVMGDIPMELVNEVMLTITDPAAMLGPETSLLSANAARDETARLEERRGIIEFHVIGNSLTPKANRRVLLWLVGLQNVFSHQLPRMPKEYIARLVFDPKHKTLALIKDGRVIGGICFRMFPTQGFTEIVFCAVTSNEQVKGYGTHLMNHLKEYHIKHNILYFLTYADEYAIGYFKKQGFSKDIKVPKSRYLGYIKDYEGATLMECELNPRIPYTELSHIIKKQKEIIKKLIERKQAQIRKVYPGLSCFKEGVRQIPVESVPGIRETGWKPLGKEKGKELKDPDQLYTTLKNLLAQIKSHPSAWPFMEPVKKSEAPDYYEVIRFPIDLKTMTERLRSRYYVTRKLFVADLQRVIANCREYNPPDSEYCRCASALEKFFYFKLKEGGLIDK

GAAATTTAGAACAGAAAGTGAAACCA (double strand) [rs10833823 REF (A)]
binding signal [1]: 1.54 Z score | binding signal [2]: 9.71 Z score | binding signal ([3]; IFNg+LPS extract): 10.6 Z score

GAAATTTAGAACGGAAAGTGAAACCA (double strand) [rs10833823 non-REF (G)]
binding signal [1]: 3.36 Z score | binding signal [2]: 28.5 Z score | binding signal ([3]; IFNg+LPS extract): 15.8 Z score

GCCTAGAAGTCCCATGTTGCAGACTCGAAGGTCTAGGTCTTGATTCGCTTGACGCTGCTG (double strand) [CXCL10 tile 7]
binding signal ([4]; LPS 45 min extract): 0.56 Z score

GCCTAGCAAAACCTGCTGGCTGTTCCTGGGGACTAGGTCTTGATTCGCTTGACGCTGCTG (double strand) [CXCL10 tile 2]
binding signal ([4]; LPS 45 min extract): -0.374 Z score

GCCTAGCCATGTTGCAGACTCGAAGGTATTATCTAGGTCTTGATTCGCTTGACGCTGCTG (double strand) [CXCL10 tile 8]
binding signal ([4]; LPS 45 min extract): 0.079 Z score

GCCTAGCCTGCTGGCTGTTCCTGGGGAAGTCCCTAGGTCTTGATTCGCTTGACGCTGCTG (double strand) [CXCL10 tile 3]
binding signal [5]: 3.17 Z score | binding signal ([4]; LPS 45 min extract): 20.9 Z score | binding signal ([4]; untreated extract): 7.49 Z score | binding signal ([6]; LPS 45 min extract, replicate 1 (replicate 2: 3.237)): 3.75 Z score | binding signal ([6]; untreated extract, replicate 1 (replicate 2: 0.462)): -0.59 Z score | binding signal ([3]; LPS 45 min extract): -1.16 Z score | binding signal ([3]; untreated extract): -0.828 Z score

GCCTAGCTTAGCAAAACCTGCTGGCTGTTCCTCTAGGTCTTGATTCGCTTGACGCTGCTG (double strand) [CXCL10 tile 1]
binding signal ([4]; LPS 45 min extract): 0.046 Z score

GCCTAGGAAGGTATTATTTATTGTAGCCTCCACTAGGTCTTGATTCGCTTGACGCTGCTG (double strand) [CXCL10 tile 11]
binding signal ([4]; LPS 45 min extract): -1.38 Z score

GCCTAGGACTCGAAGGTATTATTTATTGTAGCCTAGGTCTTGATTCGCTTGACGCTGCTG (double strand) [CXCL10 tile 10]
binding signal ([4]; LPS 45 min extract): -0.567 Z score

GCCTAGGTTCCTGGGGAAGTCCCATGTTGCAGCTAGGTCTTGATTCGCTTGACGCTGCTG (double strand) [CXCL10 tile 5]
binding signal ([4]; LPS 45 min extract): 8.52 Z score

GCCTAGTATTATTTATTGTAGCCTCCAAGTTACTAGGTCTTGATTCGCTTGACGCTGCTG (double strand) [CXCL10 tile 12]
binding signal ([4]; LPS 45 min extract): -0.454 Z score

GCCTAGTGGCTGTTCCTGGGGAAGTCCCATGTCTAGGTCTTGATTCGCTTGACGCTGCTG (double strand) [CXCL10 tile 4]
binding signal ([4]; LPS 45 min extract): 15 Z score

GCCTAGTGGGGAAGTCCCATGTTGCAGACTCGCTAGGTCTTGATTCGCTTGACGCTGCTG (double strand) [CXCL10 tile 6]
binding signal ([4]; LPS 45 min extract): 14.3 Z score

GCCTAGTTGCAGACTCGAAGGTATTATTTATTCTAGGTCTTGATTCGCTTGACGCTGCTG (double strand) [CXCL10 tile 9]
binding signal ([4]; LPS 45 min extract): 0.218 Z score

TGATGCAATGAAATGGGGAAGTATTA (double strand) [rs11950944 non-REF (A)]
binding signal [7]: 5.99 Z score | binding signal [8]: 2.99 Z score | binding signal ([6]; IFNg+LPS extract): 2.36 Z score | binding signal [2]: 2.61 Z score

TGATGCAATGAAGTGGGGAAGTATTA (double strand) [rs11950944 REF (G)]
binding signal [7]: 4.04 Z score | binding signal [8, 9]: -0.38 Z score | binding signal ([6]; IFNg+LPS extract, not recruited or below detection): -0.13 Z score | binding signal [2, 9]: 0.37 Z score
